According to paper doi:10.1101/2020.05.11.089458 (bioRxiv, 2020):

B1: YpTatB^22-220 (soluble cytoplasmic domain of Yersinia pseudotuberculosis TatB) (domain or fragment)
chain: PERLPVAVRTVSGWIRTLRSLAATVQNELAQELKLQELQDSLKKVEQAGLQNLTPELKASMDELKEAAEALKRSYHVDAGSEAPHTIHNPLVTEPEAIHDGVTPAEPATQVSALAQAPNILEAGTASVADSVVEAAPVTTVKSVVQGEVLVKSTPVQEVGLADVMDKPVTKQQIDTIDSHGTDLSSAGPSRIHQPGGDQ
B2: TatB^22-171 (soluble membrane-extrinsic cytoplasmic domain of E. coli TatB) (domain or fragment)
chain: PQRLPVAVKTVAGWIRALRSLATTVQNELTQELKLQEFQDSLKKVEKASLTNLTPELKASMDELRQAAESMKRSYVANDPEKASDEAHTIHNPVVKDNEAAHEGVTPAAAQTQASSPEQKPETTPEPVVKPAADAEPKTAAPSPSSSDKP

Biological target: the molecule itself
Assay: SEC

Protein | stoichiometry N
B1 | 3
B2 | 4
